The data set concerns the target T1, MsABI5 (Malus sieversii, UniProt A0A498IDK6 1-328+A0A540LD52:305-441, internal_change).
T1 sequence: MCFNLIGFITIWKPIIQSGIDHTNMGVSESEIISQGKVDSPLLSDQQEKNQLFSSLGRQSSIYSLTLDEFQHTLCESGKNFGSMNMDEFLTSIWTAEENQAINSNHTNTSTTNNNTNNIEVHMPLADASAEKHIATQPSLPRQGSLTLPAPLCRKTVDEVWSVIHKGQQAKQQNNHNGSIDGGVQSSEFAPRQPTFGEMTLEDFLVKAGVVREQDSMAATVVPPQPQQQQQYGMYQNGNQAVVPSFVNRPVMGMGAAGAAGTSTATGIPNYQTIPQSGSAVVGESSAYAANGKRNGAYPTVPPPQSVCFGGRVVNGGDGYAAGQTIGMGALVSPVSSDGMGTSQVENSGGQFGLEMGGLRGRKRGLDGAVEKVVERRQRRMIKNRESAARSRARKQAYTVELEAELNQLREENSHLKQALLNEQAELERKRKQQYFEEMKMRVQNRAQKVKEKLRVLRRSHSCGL
Briefly: EMSA; EMSA per manufacturer's instructions (Beyotime); buffer, salt, pH and temperature not stated. The settings on record: protein: recombinant; tags: MBP (pMAL-C2X); chain copies: 2; blunt.

B1: MsSMXL1 promoter P3 ACE probe (dsDNA)
DNA 1: ATGTTGATTAACGTACCACTTAGTAC
DNA 2: GTACTAAGTGGTACGTTAATCAACAT
With B1, the binding result is reported as “binds”.

B2: MsP5CS2.2 promoter ABRE probe (dsDNA)
DNA 1: AGAAACCGACACGTCTCTCTTTTCTA
DNA 2: TAGAAAAGAGAGACGTGTCGGTTTCT
In the case of B2, the binding result is “binds”.

These data come from publication PMC12090352, “Strigolactones enhance apple drought resistance via the MsABI5-MsSMXL1-MsNAC022 cascade”.
